Earlier results as cited in PMC2939181.

Molecular target: CPT-1 (UniProt P50416)
Test: FRET

Sequence of UniProt P50416 (P50416 2-773): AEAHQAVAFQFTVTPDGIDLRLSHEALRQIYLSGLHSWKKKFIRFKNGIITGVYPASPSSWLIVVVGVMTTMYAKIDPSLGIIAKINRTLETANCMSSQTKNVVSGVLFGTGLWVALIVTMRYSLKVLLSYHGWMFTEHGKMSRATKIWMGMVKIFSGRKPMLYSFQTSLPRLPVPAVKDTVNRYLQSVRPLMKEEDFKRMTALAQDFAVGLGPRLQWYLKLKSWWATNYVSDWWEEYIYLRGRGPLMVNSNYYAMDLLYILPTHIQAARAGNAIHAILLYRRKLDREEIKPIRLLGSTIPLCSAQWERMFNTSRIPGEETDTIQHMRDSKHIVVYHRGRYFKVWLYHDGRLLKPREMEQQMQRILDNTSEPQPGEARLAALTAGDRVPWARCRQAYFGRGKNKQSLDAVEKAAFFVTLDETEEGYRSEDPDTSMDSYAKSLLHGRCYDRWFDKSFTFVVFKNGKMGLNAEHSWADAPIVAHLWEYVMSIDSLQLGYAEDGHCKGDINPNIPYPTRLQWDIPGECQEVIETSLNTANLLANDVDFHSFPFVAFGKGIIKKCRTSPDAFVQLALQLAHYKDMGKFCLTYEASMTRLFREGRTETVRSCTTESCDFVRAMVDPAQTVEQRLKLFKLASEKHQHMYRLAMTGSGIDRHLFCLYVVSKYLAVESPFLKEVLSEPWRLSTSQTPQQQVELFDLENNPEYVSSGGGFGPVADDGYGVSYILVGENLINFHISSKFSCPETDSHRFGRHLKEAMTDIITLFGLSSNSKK

- Kd: 2.1 nM
Substance: L-FABP (from UniProt P07148)
